Data: the supplement of paper PMC9732359
± gives the uncertainty stated by the source.

Assay: protein stability index of a GFP-peptide fusion (yeast GPS) (PSI 1-4); higher = more stable; sorted into four equal gates, so the index is relative within each strain
Details: san1∆
Outline: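 The protein stability index of a peptide was calculated by multiplying its read frequency in each gate by that gate's number and adding the products. The peptides were tiled 17-residue stretches of yeast proteins, fused downstream of GFP on a Cherry-expressing plasmid and carried in yeast as a pooled library. Mid-log cultures in leucine-free medium were sorted into four equal gates by GFP/Cherry ratio, and each gate's plasmids were PCR-amplified and Illumina-sequenced.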

Sequence | protein stability index
TNPKLKSEFDDLSLNIH [YMR129W/POM152] | 3.02 ± 0.038

Same assay, conditions: ubr1∆

Sequence | protein stability index
SYEKNEDHVEDHRKRKK [LIN1] | 3.21 ± 0.054
SYFLKLLGNCYSLRLIN [SRB8] | 2.96 ± 0.069
SYFYRRIHVNPSYYGVR [BRR2] | 1.76 ± 0.029
SYKDSGLWGFSTATRNV [COR1] | 3.16 ± 0.084
SYKRIYGEYPPTKLLVS [PRE8] | 3.09 ± 0.06
SYQKLLKNYVLNELHPT [PRP8] | 1.75 ± 0.033
SYRGVDLEKLLEMSTED [RPS15] | 3.19 ± 0.083
SYTDAQDKSKKIMNVTT [YMR129W/POM152] | 3.03 ± 0.048
SYYDNDLDETTQTFNGS [YML031W/NDC1] | 2.81 ± 0.033
SYYELETIIFDSELNRA [RRI1] | 2.93 ± 0.056
TAASEARKHKLKTLVQG [RPS27A] | 3.04 ± 0.18
TAEAPTLSFNFSQKANK [YOR098C/NUP1] | 3.26 ± 0.085
TAEDSWAVISAFFREKG [RPB2] | 2.94 ± 0.063
TAFNKTRGPFHFRAPSR [RPL16B] | 3 ± 0.066
TAGAAANALGGLGVNRR [SSN3] | 3.24 ± 0.1
TAIGIATKEGVVLGVEK [PUP2] | 3.11 ± 0.058
TAILQRQLQYETLGDIL [ECM29] | 3.02 ± 0.097
TANATAELNLPTVDEQR [SNF11] | 3.147 ± 0.026
TANATANVNASAMPAPY [DSN1] | 3.1 ± 0.034
TAPSSQRRVLLSAPLSK [RPL26A] | 2.18 ± 0.036
TASFIPLDTIETELPTL [SMC1] | 2.53 ± 0.051
TASKIIVIDVDYNKKQD [MED1] | 2.65 ± 0.065
TASSEASAGSKEGASTN [YMR153W/NUP53] | 3.39 ± 0.12
TASVEKAEFSKEMTLQK [YIL149C/MLP2] | 3.22 ± 0.13
TATNSKGEQIAIFPYQD [ECM29] | 3.15 ± 0.15
TAVKQGVTSLGIKATNG [PRE8] | 1.71 ± 0.083

Sequence | protein stability index
TAVSFVSAAEDESLIRE [PRP28] | 2.2 ± 0.15
TCAGGRLFNVVVQDSQT [SMC2] | 2.76 ± 0.082
TCDEIQNFENDFSLRYI [REC8] | 2.88 ± 0.28
TDAMTESQPKQTGTRRN [MCD1] | 3.09 ± 0.061
TDDADDHINWEHIKQDY [NSL1] | 3.4 ± 0.082
TDGVIGSRTTTNHVLEV [RPO31] | 3.54 ± 0.088
TDKPFSSTQDVILRKIS [CSI1] | 3.05 ± 0.06
TDLIREKTMMTFGKPEE [YCS4] | 3.11 ± 0.05
TDLPIETAAMASLALAH [RPN1] | 1.43 ± 0.045
TDLSGKETIARVTGGMK [RPS14A] | 2.92 ± 0.061
TDLTNNSTDGAKITEIG [YIL149C/MLP2] | 3.28 ± 0.055
TDRESYPRLQDPSRELN [YCS4] | 3.09 ± 0.052
TDRITRLFIKPGQKMSL [BRN1] | 3.17 ± 0.1
TDVEKSDPAAKKTATEP [SRP21] | 3.18 ± 0.096
TEALLLEHDVEYRPFSK [DIS3] | 3.3 ± 0.082
TEDQKVTTNINWRSFNA [SRP68] | 3.21 ± 0.049
TEFEFYLLEELESYLIV [SSN8] | 2.72 ± 0.064
TEKEEAVAKAAEKKVVR [RPL17A] | 3.24 ± 0.062
TEKLSNGFSFTKFNHNK [YOR098C/NUP1] | 2.94 ± 0.063
TELLNIYDSEDPQQVFD [RPN3] | 2.87 ± 0.058
TEVERAKSLLKLQLGQL [COR1] | 1.37 ± 0.037
TFANPNRTFTDPPFRIE [TAF14] | 2.27 ± 0.039
TFDLTPEDAQLLLAANT [RPS0A] | 2.45 ± 0.053
TFIDKERHQKQLNEKLV [YCS4] | 2.65 ± 0.093
TFLKYFGWLLSDNSVSV [IRR1] | 2.66 ± 0.11
TFRRRNPYNTRSNKIKV [RPL34A] | 1.9 ± 0.04

Sequence | protein stability index
TFTIKEFVSYYYAHSIP [SNU114] | 1.88 ± 0.052
TGAYIANRVTDKLTRVH [PRE3] | 1.54 ± 0.056
TGISQKSMSILNSFVND [HTB1] | 2.67 ± 0.087
TGSNDRCIGDSDNVSFE [YMR129W/POM152] | 3.09 ± 0.048
THTEQNNPPKPQKPVPL [SNF2] | 3.15 ± 0.057
THTNLERDEQKRAEKKA [SNF2] | 3.23 ± 0.059
TIANSIILHFANFGEIL [YMR153W/NUP53] | 2.27 ± 0.062
TIDEQSQISPEKQTPNK [RPN1] | 3.22 ± 0.056
TIEKDKMKIQETISKLN [SMC2] | 1.53 ± 0.038
TIEQSPRMIELMEFLCV [ECM29] | 3.25 ± 0.13
TIERSLIEEEVEQDEGQ [YCS4] | 3.5 ± 0.17
TIKDLVGGKSTVQNEIL [FAS2] | 3.24 ± 0.11
TISKESTPDQRKRVYNI [ESC2] | 3.01 ± 0.099
TITIKSYHLWPSFTDEQ [PRP8] | 2.51 ± 0.047
TIVGVKFNNGVVIAADT [PUP1] | 2.55 ± 0.17
TKAVEFSMGHIRSSSVS [MED4] | 2.99 ± 0.078
TKEMDEVEEDDEDDDQP [SWI3] | 3.27 ± 0.066
TKFNHNKEKSNSPTSFF [YOR098C/NUP1] | 2.53 ± 0.051
TKFSNPAIPPVIDLEKI [BRR2] | 2.65 ± 0.052
TKIDMPIKNRKNDTHYL [BRN1] | 2.94 ± 0.053
TKIKDAEEDSLLSGEDL [YJL039C/NUP192] | 3.38 ± 0.12
TKKKSKFMTNSTAFVPT [ARP9] | 2.77 ± 0.038
TKLDQVWGSETVASSKV [RPL4A] | 2.98 ± 0.044
TKLGFTFTIKEFVSYYY [SNU114] | 1.76 ± 0.041
TKLIGVLILLHAERDLA [SRP68] | 2.78 ± 0.098
TKPFENVEKYPTFVEFI [SNU114] | 2.86 ± 0.11

Sequence | protein stability index
TKQIQSVRIDGRKVLQK [SIR4] | 2.02 ± 0.04
TKRQKHFAWLPTHIWNA [POP1] | 1.74 ± 0.021
TKRVEKPQLKFKSPIDN [RRP6] | 3.137 ± 0.03
TKSKEQLASQLVDLKKE [RPL35A] | 3.2 ± 0.17
TKVLNMKPSEILSLIEE [SMC2] | 2.9 ± 0.11
TKVNNQLIKVAVHNGGR [RPL9A] | 2.4 ± 0.029
TLDDLVTKWTNQLTESA [YJL041W/NSP1] | 3.05 ± 0.061
TLILIQNPENLLSEKIL [SIR3] | 3.16 ± 0.06
TLKIHLKKFLQEKMDPN [IRR1] | 2.82 ± 0.099
TLKKNNVAVDIINFGEI [RPN10] | 2.74 ± 0.063
TLLPGLQDEVMNIKPVQ [RPS2] | 1.09 ± 0.14
TLLRLNELLDLTESQTE [RPN5] | 2.74 ± 0.072
TLLWNKNDKLIKIEDFV [SNF5] | 1.83 ± 0.036
TLPEKKQFDSIFNSNKA [SIR4] | 2.8 ± 0.035
TLRCSVVEACGNIVAEL [YCS4] | 1.55 ± 0.062
TLSNGLIASHYGVSFFT [BRR2] | 2.83 ± 0.04
TLSTHSTTTSVNGSTTA [SIN4] | 2.93 ± 0.031
TLVAQNLKQANNVAYGK [SMC4] | 3 ± 0.067
TMLELLNQLDGFETSKN [RPT6] | 2.84 ± 0.087
TNAGYTIELAGGGYFSA [FAS1] | 2.09 ± 0.068
TNDGIERYSDKYLKKRK [RPC31] | 2.88 ± 0.091
TNENGETDDNIETVMTQ [SRB4] | 2.5 ± 0.074
TNFNEITNTDETITTKR [SWP82] | 3.32 ± 0.045
TNIRRIIQDNISPRLVV [RRP46] | 1.82 ± 0.03
TNLYKLKEERAIEPETF [PUP3] | 3.25 ± 0.097
TNPKLKSEFDDLSLNIH [YMR129W/POM152] | 3.17 ± 0.05
